Source: the DeepSol protein solubility set

Test: soluble on expression in E. coli; label from the status in PepcDB or PDB records

| Sequence | soluble on expression in E. coli |
| --- | --- |
| MVSSLFINPFSEDAREIVRKYGSLDTIDDTRDELLEIGRRTRGQNLADNSLLPASIAELAVKRLEWYLRRQRKDFNHRDYAYLMNPEIEEYDVLAFYILAQAAGAGFMKASREARLVVESAGAMVEDRLNVFGGEREEIMAEVLYELGSEGLRWTELADLLGSGKLKLTDLILKEGRVIIDRDEFITSFQDSIRDRSPDRLYDILVGLEVRETMISRMIMQRTEEYIGMVREMSSTVEVHPLILETAERIRETVEEIMSFTGGPVKSARPGKLVQEAFPPCIRGTLDGVRSGNRNDAIVLLLTSFISYARLYPSVFRDRTPMKVSDLDPDLRITLGEILPVIYDAADRCEPPLFEDDPQEKLNITAKLGFGVHDMPELENEGESKWYTPMSCEKIKIHLPDLCRPDKLCSSISNPLTYYNRKRWKLRSSGEKEELEHHHHHH | not soluble |
| TQNPIANPLAAKKRRDHVLERLLEEHYINEEQYQNAVNQPITAKYHGTNIKVKAPYVAEMIRQSLYDNFGPEAYTKGY | not soluble |
| SARLPKLAVFDLDYTLWPFWVDTHVDPPFHKSSDGTVRDRRGQDVRLYPEVPEVLKRLQSLGVPGAAASRTSEIEGANQLLELFDLFRCYLHSHPEWNESSNSKSRVRDICEGPNWAFEVQP | soluble |
| MKRILNYPGSKWGLADLIIENMPEHKSYLEPFCGSCAVFMNKQKATLETINDLDGRLVNLFKTMRDNPEELQYLIMHTLYSREEYMLSHEISSDSLEDARRMAVRLWFAVGGKTNANVGFRKNVSWNGPYNAYEWNDMYNRIGIAAARLKDAQIENVDAIKLIEQHNDKDTLIYCDPPYVATSLASSHYQHDFSLEQHKELLKVLKKHEGKVMLSGYESELYKQELSDWPALKTMTKVGITSEKKSDRQEIIWCNFEPPMQLNLFKEEQA | not soluble |
| MGSDKIHHHHHHMNIAFVINPVAGLGATLNLKGSDGLALEDVSKSISIVRSHRFLKKLDFNGLHFFVPSGCMGESEVSIYTKEYDVIYTPSSPTTRQDTINFVKSIESADLLVFVGGDGTARDILNSRNDLPVIGVPAGVKMYSSVFAISPERAADAVNQVAKGNYRIDKAEVVDIDEELYRKGILSVKRYGQLKVPEAQYIVENSKAEYDIAGAEDIAEYVIEHMADETYIIGPGNTCKTIEEEMGIKSNVLGFDILRNKKLIKEDASESEIYEACSDKCMLVISPVGGQNFLLGRGNKQISDRILERVGEENLIVVSSPSKAEHLKYVYIDTQIPLWSNGYVKVLVGYGRYKLVKVIR | not soluble |
| MEYSQIPSFAFYNNASIFQFFPRNKRLNTHQKSCLDEHARKMAVFMMERQEEYRYYENLANQEQFSDDACFSDTGMDSGFCSGATSTGQSASTSPAPAHLIPNPFFDPEYVAKAQSPVKLVANPFYNPELVKEIKKKSRVSV | not soluble |
| MAHHHHHHMPFVVTHPPDTAELVEGEPFYSLAMYTLLSSTTDVVPALRNFTFQLRAFNVLPPYDAVGLLSGIDSTGLIVWGGALGFLEWLVQHPDRLQARMRNVSKAQAHVIELGCGSGVVAVALCALLRGLDLPDLVEKSISSSPAVCVWATDGNPECVSLAERNLRAQLKEPCTSCPGVAASAALLRWGDAAAVQEALQTSFPGCTAASSITVVAADVLYDAAVVPLLVSTVAEIARVHVAGAGPSTLPGSVEWWLAYTPRSLTRALNEAIFQALLDSIADHGWTYELVDLPAGAVATGFEENPDCSVPALSGCILVVQVTCDTRS | not soluble |
| MNNLYPYGAPDSNLYARKQEEYDQQIAEAILAGIKREATAIELYRRLADEAPSEQHQHDIRQALENKQASLTQFTNAYRILTGQQPQLEVDDVSFYRFHEGLQKAYEIEVEGYEEYERSSALTENPHVQHAFWTALNTEYENTTRLYRSLHEEADHRVTDHGPRPFVVNIEDETKRNRAFRRALWTGDHLQVTLMSIQVGEDIGLEIHPHLDQFLRVEEGRGLVQMGHRQDNLHFQEEVFDDYAILIPAGTWHNVRNTGNRPLKLYSIYAPPQHPHGTVHETKAIAMAAEEHHHL | soluble |
| MAGRRRWSTEQILDAAAELLLAGDAETFSVRKLAASLGTDSSSLYRHFRNKTELLRAVADRILLSAMDGYRPEGDWKQRLTAVALRLRESFGQQPQLAAVWGRHGSGGTGSRLMMEEVLQALRASGLPDDEIPARYHRLVILISSLITAEGGFGAVGAQEHEQGMEQFRVAVLGADPERFPALSHFAREIRPLGADRGAAFEEILAAHLAHLEAAAP | soluble |
| METTIFQFQKTFFTKPPKERVFVLHGEEQYLIRTFLSKLKEKYGENYTVLWGDEISEEEFYTALSETSIFGGSKEKAVVIYNFGDFLKKLGRKKKEKERLIKVLRNVKSNYVFIVYDAKLQKQELSSEPLKSVASFGGIVVANRLSKERIKQLVLKKFKEKGINVENDALEYLLQLTGYNLMELKLEVEKLIDYASEKKILTLDEVKRVAFSVSENVNVFEFVDLLLLKDYEKALKVLDSLISFGIHPLQIMKILSSYALKLYTLKRLEEKGEDLNKAMESVGIKNNFLKMKFKSYLKANSKEDLKNLILSLQRIDAFSKLYFQDTVQLLRDFLTSRLEREVVKNTSHGG | soluble |
| MGSDKIHHHHHHMTPADNEIAEQQNFVDFNSILYTPQYAAGCFGLTTRRLMAIEEEHGLDIKRIKRGSSTSRVYTASDLFNIAALRRSLGHLKPIGRQIVASTFVPKGGTAKTTTAVNLAISAQFAGIKTLIIDNDPQGDTSNMLGYDPDLSPDDLVDMNIPSDRLVDGHFGNLLSPLLRMKPFSEKVLADVIKKPFGENGIHLIPADTYLEDLAVALDASNNSDMWYARFIEDANAGKVPGCDLSVYDLIIIDNAPAGSRLTKNSVAASDLLLCPVRMDKFSFRALLRLHEWCARFAKEYSYAPALMAIPTMFIRKRARLLANLQSLNTLFPGQVTEEKIYFSEDYSKSLDDGIPLMLWKRANSQTIDTARLVFGEILQKIRSLAA | not soluble |
| MSLNSQGYAVVDFETTGLSPAKGDRAIEIGLVHVAPDGTLEDEHETLIHVDRSVGASWVHHITARELLHAPDFEGIAHELRDLLAGRVFVAHNVSFDSRFLLAEYSRMGASIPVDQSTMLCTMKLSRSLIGRGKLADCCEYFGIANEDAHSALSDAHATAILLGRLLEADPKWPGFQRRLDAAGAAAEQWPTEGHHHHHH | not soluble |
| MGVISAYAVVHERAAIIDPGTAKGAEIILDEIDRSWNVEYICPTHIHIDHGGGAARLAKALDAKIIVHPRGVKHVVNPEKLWEASKAVLGEVAEIYGKPESIDESKVIAVEDEQEFDLGGERLKVFHAPGHAPHMLVYYLTNSKVLFPADAVGMCFGGVVFPLTPPPFDADAALKTLKRLKGLKVDYVAFTHYGVVEGDWPIAKLEHHHHHH | not soluble |
| MPGDSMCQAMAGNERHMLTSVKTGTYTMPVLHNRVSNEELKARMLAETEPRTTVSFYKYFTIDDPKAFRDRLYIQLEQYKVFGRIYIAAEGINAQISVPNNQFDAFKTGLFSAHPALDQIRLNIALEDDGKSFWVLRMKVRERIVADGIDDPTFNPANVGQYLKADRVNAMADDPDTVFVDMRNHYEYEVGHFQNALEVPSDTFREQLPMAVDMLDDIRDKNIVMYCTGGIRCEKASAYMLHHGFKNVYHVEGGIIEYARQAKAQGLPLKFIGKNFVFDERMGERISDDVIAHCHQCGASCDSHTNCRNEGCHLLFIQCPSCAAKYEGCCSTQCQDEMKLPLEEQRAIRSGRENGMKIFNKSKGLLQSTLHIPAPAAKDNAELEHHHHHH | not soluble |
| MRPGWIAADWGTSRLRVWAMGAEGVLAEARSDEGMGQIAVGGFEAALLRLIGLWLSDGPAVQVVICGMAGARQGWQEVPYRRLPCAPVDPQALVPVPSEDPRIAVRIVPGLAQAKPADVMRGEETQIAGALALLGSFDGVICLPGTHSKWAQVSAGEVVSFRSFLTGELFALLSERSVLRHGLAAEGWDDEAFLAAVSDGMSHPQKLGAKLFGLRAEALLQDLPPATARARLSGLLIGLELVGARSYWLGQPVVLVGEEALAARYGAALAAQGVQARLLPAAACTLGGLAAAVGQLTLASSGAGRKA | not soluble |
| RIGIVVAAHGNSTASSMVQVVSQLLNVDNLKAVDMPLDMPPKEALRKIVEAVGEVNEENGVLLLVDMGSLSTFSEEIVRQTGIDVRTVDMVTTPIVLEAARKTALIDTQLETLHESLKNFHGYADIRQSETKQ | soluble |
| MEDKVDVLIIGGGASGVTSGIQSARMGANTLILEESTWLGGMLTSAGVSAVDGNYRLPAGLWGEFKNRLSDYYGGLDSLKTGWVSNVLFEPSVGNKILHEMVAAENNLKVWKQACLEEVKRTGDEWVAKVKVEGQGVKTVRAKVMIDATELGDVAKMCGVKYDIGLEHHHHHH | soluble |
